Patent US20240166702A1 (published 2024)

Target: EGFR kinase domain (UniProt P00533 696-1022, fluorescent dye attached through the His-tag)
Assay: MST

Kd: 2900 nM
B1: Sorting Nexin 1 (SNX1) Bar domain (other)
chain: MNESDIWFEEKLQEVECEEQRLRKLHAVVETLVNHRKELALNTAQFAKSLAMLGSSEDNTALSRALSQLAEVEEKIEQLHQEQANNDFFLLAELLSDYIRLLAIVRAAFDQRMKTWQRWQDAQATLQKKREAEARLLWANKPDKLQQAKDEILEWESRVTQYERDFERISTVVRKEVIRFEKEKSKDFKNHVIKYLETLLYSQQQLAKYWEAFLPEAKAIS
